This note sets out measurements from paper PMC12376620, “A Novel OsMPK6‐OsMADS47‐PPKL1/3 Module Controls Grain Shape and Yield in Rice”.

The labels stand for the following.
B1: GW8-P3 (dsDNA)
DNA 1: CTACTTTCCTTATTCCACTAGAAATCATATATACCTTTCTCACTCTACATAATC
DNA 2: GATTATGTAGAGTGAGAAAGGTATATATGATTTCTAGTGGAATAAGGAAAGTAG
B2: GS3-P5 (dsDNA)
DNA 1: CTTTTCTAAACGATATTCTTCATGAACCAAAGGAGGGAAGCTCATTCCGAAAATTTTTCC
DNA 2: GGAAAAATTTTCGGAATGAGCTTCCCTCCTTTGGTTCATGAAGAATATCGTTTAGAAAAG
B3: GW8-P2 (dsDNA)
DNA 1: GTAACTGACTACCCCCAGTTCCTGCCCTCTTGGGCCTTGGTATTGTTGCTCCAAG
DNA 2: CTTGGAGCAACAATACCAAGGCCCAAGAGGGCAGGAACTGGGGGTAGTCAGTTAC
B4: GS3-P2 (dsDNA)
DNA 1: CTCTCCCTTCCATCATTACTTGCCCAAAAACGGCAATCCCCTCCCCTCCATCTCCATGTG
DNA 2: CACATGGAGATGGAGGGGAGGGGATTGCCGTTTTTGGGCAAGTAATGATGGAAGGGAGAG
B5: GS3-P1 (dsDNA)
DNA 1: GCTGCACAACCCGCGATGCCGTCGGCCGGATTTGGGAGGTGGAGCGTCGCCGCCCTCC
DNA 2: GGAGGGCGGCGACGCTCCACCTCCCAAATCCGGCCGACGGCATCGCGGGTTGTGCAGC
B6: GS3-P4 (dsDNA)
DNA 1: CCACCGTCCCCCCTTCCCCCTCCAACCAGATCTGGGAGGAAGGGAGGGAGGGAGGGGAG
DNA 2: CTCCCCTCCCTCCCTCCCTTCCTCCCAGATCTGGTTGGAGGGGGAAGGGGGGACGGTGG
B7: GS3-P3 (dsDNA)
DNA 1: GCCACCCTCCCTACGACGTAGCCAGATATGGGTGGAGAGGTAAGCGCCGCCGCCGCTGC
DNA 2: GCAGCGGCGGCGGCGCTTACCTCTCCACCCATATCTGGCTACGTCGTAGGGAGGGTGGC
B8: GW8-P1 (dsDNA)
DNA 1: CTTATAGTCCAACAATTTGAGAGCAATTAATGGTCAAAAATTAAATGAAAAATAGAAATTC
DNA 2: GAATTTCTATTTTTCATTTAATTTTTGACCATTAATTGCTCTCAAATTGTTGGACTATAAG

For the data set, the target named is MBP-OsMADS47 (Oryza sativa (cv. Nipponbare, NIP?), UniProt Q5K4R0 1-250). Kind of data set: EMSA; EMSA buffer not stated (performed as described previously, ref 61); unlabeled competitors at 10x, 100x, 1000x. The conditions noted are these: protein: recombinant; tags: MBP (N-terminal, pMAL); chain copies: 2; label: biotin 3'-end; blunt. In general terms: A gel shift assay detects complexes by their altered migration in electrophoresis.
Sequence of MBP-OsMADS47 (Q5K4R0 whole entry): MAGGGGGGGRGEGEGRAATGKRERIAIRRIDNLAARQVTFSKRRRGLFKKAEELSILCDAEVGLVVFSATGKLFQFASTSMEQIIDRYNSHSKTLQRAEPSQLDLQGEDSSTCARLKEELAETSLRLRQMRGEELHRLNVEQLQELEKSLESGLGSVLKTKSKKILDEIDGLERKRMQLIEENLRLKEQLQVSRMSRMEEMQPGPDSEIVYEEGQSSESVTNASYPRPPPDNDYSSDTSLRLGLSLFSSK
B1: the binding result is “binds”.

As to B2, the binding result is given as “binds”.

Take B3: the binding result is reported as “binds”.

With B4, the binding result is “binds”.

As to B5, the binding result is given as “binds”.

As to B6, the binding result is “binds”.

With B7, the binding result is recorded as “binds”.

On to B8, for which the binding result was “binds”.
